Data reported in patent publication US20240101686A1.
Like-named read-outs stand apart in the source and are kept apart here.

How the values were obtained:
Conditions in all cases: remark: other sources report otherwise
[1] = molecular target: human EGFR on cells (human), P00533
[2] = molecular target: human EGFR on cells (human), P00533; remark: listed apart in the source
[3] = molecular target: human EGFR on cells (human), P00533; remark: listed apart in the source
[4] = molecular target: human EGFR endogenously expressed on A431 cells (human), P00533

B1: 30D8-hIgG1 (antibody, V domains shown)
VH: EVQLVESGGGLVKPGGSLRLSCEASGFTFSDAWMSWVRQAPGKGLEWVGRIKSKTDGGTTDYVVPLNGRFIISRDDSRNTLYLQLNNLKTEDTAVYYCTTVPGSYGYWGQGTLVTVSS
VL: DIVMTQSPLSLPVTPGEPASISCRSSQSLLHNKRNNYLDWFLQKPGQSPQLLIYLASNRASGVPDRFSGGGSGTDFTLKISRVEAEDVGVYYCMQAQQTPITFGQGTRLEIK
In the case of B1, the Average fluorescence intensity [1] is reported as 528, the Max MFI [2] is reported as 143 and the Max MFI [3] is reported as 88. It also gave a Max MFI [4] of 712.
